Data published in patent US20260317426 (published 2026).

What was measured:
MICB*004 ECD = molecular target: T1, MICB*004 ECD (human, UniProt Q29980); test: BLI, monovalent
T1 chain: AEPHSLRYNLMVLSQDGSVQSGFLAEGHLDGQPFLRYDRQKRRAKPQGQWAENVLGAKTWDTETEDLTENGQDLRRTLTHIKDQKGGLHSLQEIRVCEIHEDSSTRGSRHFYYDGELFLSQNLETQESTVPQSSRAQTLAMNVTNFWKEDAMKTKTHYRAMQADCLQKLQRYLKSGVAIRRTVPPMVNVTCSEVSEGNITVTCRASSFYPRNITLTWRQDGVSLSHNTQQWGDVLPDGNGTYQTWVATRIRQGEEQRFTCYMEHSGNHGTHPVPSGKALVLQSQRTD

[1] = molecular target: T2, MICA ECD (alleles *001, *002, *004, *008) (human, UniProt Q29983); test: BLI, monovalent, lowest of MICA alleles
T2 chain: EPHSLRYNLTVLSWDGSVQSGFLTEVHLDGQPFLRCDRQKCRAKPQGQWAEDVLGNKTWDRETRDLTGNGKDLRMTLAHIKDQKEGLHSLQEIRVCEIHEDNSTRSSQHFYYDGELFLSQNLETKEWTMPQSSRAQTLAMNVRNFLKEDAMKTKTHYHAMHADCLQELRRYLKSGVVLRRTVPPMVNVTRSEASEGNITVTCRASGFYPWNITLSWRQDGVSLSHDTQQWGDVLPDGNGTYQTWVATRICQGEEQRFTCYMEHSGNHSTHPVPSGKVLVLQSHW

B1: CLN-619 (3F9H1L3L) (antibody, V domains shown)
VH: QVQLVESGGGLVKPGGSLRLSCAASGFTFSNYAMSWIRQAPGKGLEWVSYISPGGDYIYYADSVKGRFTISRDNAKNSLYLQMNSLRAEDTAVYYCTTDRRHYGSYAMDYWGQGTLVTVSS
VL: DIVMTQSPLSLPVTPGEPASISCRSSKSLLHSNLNTYLYWFLQKPGQSPQILIYRMSNLASGVPDRFSGSGSGTAFTLKISRVEAEDVGVYYCMQHLEYPFTFGPGTKLEIKR
Which Kd (MICB*004 ECD) does the source give for B1 here?
Its Kd is 11.4 nM.

What about the Kd [1] of the same binder?
The Kd was 0.77 nM.
